Earlier results as cited in PMC6120632.

Target: Basigin (Homo sapiens) (UniProt P35613)
UniProt P35613, sequence (P35613 22-325): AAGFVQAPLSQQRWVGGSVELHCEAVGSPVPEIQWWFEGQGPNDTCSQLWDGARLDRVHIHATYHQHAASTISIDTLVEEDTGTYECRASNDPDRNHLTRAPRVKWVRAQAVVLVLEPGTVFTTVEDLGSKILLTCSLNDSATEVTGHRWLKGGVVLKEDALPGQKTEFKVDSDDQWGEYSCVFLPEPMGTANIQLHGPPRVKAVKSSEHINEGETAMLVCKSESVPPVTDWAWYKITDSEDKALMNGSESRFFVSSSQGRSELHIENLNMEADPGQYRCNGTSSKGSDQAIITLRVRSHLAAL

RH5 (from UniProt Q8IFM5)
Kd: 1000 nM
